{"source": "patent US20060026702A1", "about": "“Phosphoinositide 3-kinase mediated inhibition of GPCRs” (DUKE UNIVERSITY, priority 2002, published 2006)", "molecules": {"B1": {"name": "HEAT: 197 amino acid HEAT domain of PI3Kγ, FLAG epitope-tagged (SEQ ID NO: 2), overexpressed in cells (protein, listed as Homo sapiens)", "chain": "MDYKDDDDKHPIALPKHQPTPDDRVRAEMPNQLRKQLEAIIATDTAEDKELLWHFRYESLKHPKAYPKLFSSVKWGQQEIVAKTYQLLARREVWDQSALDVGLTMQLLDCNFSDENVRAIAVQKLESLEDDDVLHYLLQLVQAVKFEPYHDSALARFLLKRGLRNKRIGHFLFWFLRSEIAQSRHYQQRFAVILEAYLRGCGTA", "modifications": "FLAG tag"}}, "key": {"AT1AR-GFP": {"molecular_target": "T1, AT1AR-GFP (Rattus norvegicus, UniProt P25095)", "T1 construct": "expressed in transfected cells; host or cells: HEK 293", "T1 sequence (P25095 1-359)": "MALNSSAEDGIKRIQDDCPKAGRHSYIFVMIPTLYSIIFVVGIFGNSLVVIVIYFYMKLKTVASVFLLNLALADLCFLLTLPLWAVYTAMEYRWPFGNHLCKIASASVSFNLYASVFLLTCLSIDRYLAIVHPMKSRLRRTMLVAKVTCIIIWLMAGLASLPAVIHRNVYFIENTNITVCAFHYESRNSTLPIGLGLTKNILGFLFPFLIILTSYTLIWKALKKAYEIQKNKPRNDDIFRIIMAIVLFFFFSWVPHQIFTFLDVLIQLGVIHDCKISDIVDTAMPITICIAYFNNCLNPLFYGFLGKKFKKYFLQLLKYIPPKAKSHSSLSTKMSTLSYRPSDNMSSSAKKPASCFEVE", "assay": "Endocytosis of AT1AR-GFP in live cells by confocal microscopy", "assay_type": "cell-based", "conditions": "Angiotensin II 10 μM, 20 min; HEAT co-expressed", "procedure": "Disruption of the endogenous βARK1/PI3K interaction by the HEAT protein attenuated AT1AR endocytosis. Endocytosis of AT1AR-GFP in live cells was monitored for 20 min following angiotensin (10 μM) stimulation in the absence or presence of HEAT protein co-expression using confocal microscopy. HEK 293 cells were transfected with 2 μg Angiotensin II Type 1 Receptor, or with 2 pg Angiotensin II Type 1 Receptor and 2 μg HEAT, and stimulated for 20 minutes with 10 μM Angiotensin II. AT1AR internalization was followed in the same cell after agonist stimulation. Prior to agonist, the distribution of AT1AR-GFP was found distinctly at the plasma membrane (FIG. 15, 0 min). […] With time, this was followed by the formation of cytoplasmic aggregates, and then with the complete loss of membrane fluorescence (FIG. 15, 5-20 min). […] In FIG. 15, panels on the left represent cells transfected with the AT1AR-GFP alone (panels show the same cell monitored at 0, 5, 10, 15, and 20 min following stimulation). Panels on the right represent cell transfected with AT1AR-GFP and HEAT (panels show the same cell monitored as above). In the absence of HEAT, agonist caused the internalization AT1ARs as shown by the formation of distinct cytoplasmic aggregates and complete loss of membrane fluorescence."}, "PI3K": {"tested_on": "PI3K", "assay": "βAR associated and endogenous PI3K activity (lipid kinase assay) in HEK-293 cells", "conditions": "HEAT (4 μg cDNA) co-transfected; 10 μM isoproterenol", "description": "Lipid Kinase Assays—Cells were lysed in lysis buffer and 2 mg cytosolic extract was used for immunoprecipitation with either the C5/1 monoclonal antibody directed against βARK1, the anti-FLAG M2 monoclonal antibody (Sigma) or antibodies to p110γ, or p110β (Santa Cruz Biotechnology) and protein G-agarose. Sedimented beads were then washed once with 1 ml of lysis buffer, thrice with 1 ml of phosphate-buffered saline (1× phosphate-buffered saline, 1% NP-40 and 100 μM sodium orthovanadate), thrice with 1 ml of Tris/LiCl (100 mM Tris-HCl (pH 7.4), 5 mM LiCl and 100 μM sodium orthovanadate) and twice with TNE (10 mM Tris Cl (pH 7.4), 150 mM NaCl, 5 mM EDTA and 100 μM sodium orthovanadate). […] Autoradiography of dried plates was used to detect signals, and PIP was quantified by phosphorimaging. […] Values are expressed as fold increase/decrease relative to wild-type/control.\nThey used HEK-293 cells transfected with either FLAG epitope tagged β1AR or β2AR plasmids and monitored the association of PI3K to the receptor after agonist stimulation. […] The FLAG epitope was immunoprecipitated from 500 ug of protein from the cytosolic extracts and PI3K activity measured.\nHEK-293 cells were transfected with FLAG β1AR (upper panel) and FLAG β2AR (lower panel). […] Cell extracts were used to immunoprecipitate β1AR and β2AR using the anti-FLAG antibody and PI3K activity was measured in the immunoprecipitates."}, "β2AR": {"tested_on": "β2AR", "assay": "β2AR sequestration in HEK-293 cells by 125I-Cyanopindolol binding", "assay_type": "cell-based", "conditions": "1 μM isoproterenol, 0-30 min; FLAG-HEAT co-transfected", "procedure": "Determination of β2AR Sequestration in HEK-293 Cells by ^125I-Cyanopindolol (CYP) Binding—β2AR sequestration was performed as previously described. Briefly, HEK-293 cells were plated at a density of 2.5×10^6 cells/dish and transfected the following day with plasmids containing either the β2AR (150-250 ng), β2AR (250 ng) and HEAT domain (4 μg), PI3Kγ (4.0 μg) or ΔPI3Kγ (4.0 μg) cDNAs. Twelve hours after transfection cells were split into six well Falcon plates at a density of 750,000 cells/well. […] To determine the amount of internalized receptor, 100 μl aliquots of whole cells were added to 150 μl of binding buffer (75 mM Tris-HCl, 10 mM MgCl2, 5 mM EDTA (pH 7.5)). Total binding was determined in the presence of 175 pM ^125I-CYP alone, the number of internalized receptors were determined by using 175 pM ^125I-CYP plus 100 nM CGP12177, and non-specific binding was determined using 175 pM ^125I-CYP plus 1 μM propranolol. Sequestration was calculated as the ratio of (specific receptor binding of ^125I-CYP in the presence of CGP12177)/(specific receptor binding of ^125I-CYP in the absence of CGP12177)."}, "β-arrestin2-GFP": {"tested_on": "β-arrestin2-GFP", "assay": "β-arrestin2-GFP recruitment to the membrane by confocal microscopy", "assay_type": "cell-based", "conditions": "isoproterenol; co-expressed mutant protein", "procedure": "Confocal Microscopy—Confocal microscopy was performed as previously described. […] Cells were split into 35 mm^2 dishes with glass bottoms for observation using a Zeiss LSM-510 confocal microscope. […] For analyses of the HEAT domain, HEK 293 cells were transfected with the plasmids containing cDNAs encoding either the β2AR-YFP (2 μg) or β2AR-YFP (2 μg) and HEAT domain (4 μg). Cells were plated onto glass bottom dishes for observation in the confocal microscope. […] Cells were permeablized with 0.1% Triton X-100 in phosphate-buffered saline for 20 min, incubated in 1% BSA in phosphate-buffered saline for 1 hr. Cells were washed with 1× phosphate-buffered saline and incubated with anti-HA or anti-FLAG monoclonal antibody (1:250) with 1% BSA in 1× phosphate-buffered saline for 1 hr. Cells were washed and incubated with goat anti-mouse IgG conjugated with Texas Red (1:500) (Molecular Probes) for 1 hr. Samples were visualized using single sequential line excitation filters at 488 and 568 nm and emission filter sets at 505-550 nm for GFP detection and 585 for Texas Red detection.\nTo exclude these possibilities cells were co-transfected with plasmids containing FLAG β2AR, β-arrestin2-GFP and either PI3Kγ or ΔPI3Kγ cDNAs, and were monitored for the recruitment of β-arrestin2-GFP using confocal microscopy. […] Marked redistribution of β-arrestin2-GFP to the membrane occurred within 2.5 minutes. […]"}}, "data": [{"molecule": "B1", "values": [{"measurement": "receptor endocytosis (redistribution of AT1AR-GFP)", "setting": "AT1AR-GFP", "value": "completely inhibited"}, {"measurement": "FLAG-β2AR associated PI3K activity", "setting": "PI3K", "value": "marked decrease"}, {"measurement": "attenuation in the rate of β2AR sequestration", "setting": "β2AR", "value": "> 60", "unit": "%"}, {"measurement": "recruitment of β-arrestin2-GFP to the receptor/membrane after agonist", "setting": "β-arrestin2-GFP", "value": "did not affect"}]}]}
